The results in this text go back to paper PMC4103192 (Biochemical and biophysical research communications, 2010).

The data set “SEC” concerns the molecule itself. Briefly: SEC.
Data set [1] deals with human hepatic cytochrome P450 CYP3A4 in POPC Nanodiscs (human) (UniProt P08684). Briefly: steady-state enzyme activity titration.
The target is the same in data set [2]. In words: SEC. On the technique in general: Size exclusion chromatography separates by hydrodynamic size, large species first.

B1: full-length rat NADPH dependent cytochrome P450 reductase (enzyme, UniProt P00388 1-678, looked up)
chain: MGDSHEDTSATMPEAVAEEVSLFSTTDMVLFSLIVGVLTYWFIFRKKKEEIPEFSKIQTTAPPVKESSFVEKMKKTGRNIIVFYGSQTGTAEEFANRLSKDAHRYGMRGMSADPEEYDLADLSSLPEIDKSLVVFCMATYGEGDPTDNAQDFYDWLQETDVDLTGVKFAVFGLGNKTYEHFNAMGKYVDQRLEQLGAQRIFELGLGDDDGNLEEDFITWREQFWPAVCEFFGVEATGEESSIRQYELVVHEDMDVAKVYTGEMGRLKSYENQKPPFDAKNPFLAAVTANRKLNQGTERHLMHLELDISDSKIRYESGDHVAVYPANDSALVNQIGEILGADLDVIMSLNNLDEESNKKHPFPCPTTYRTALTYYLDITNPPRTNVLYELAQYASEPSEQEHLHKMASSSGEGKELYLSWVVEARRHILAILQDYPSLRPPIDHLCELLPRLQARYYSIASSSKVHPNSVHICAVAVEYEAKSGRVNKGVATSWLRAKEPAGENGGRALVPMFVRKSQFRLPFKSTTPVIMVGPGTGIAPFMGFIQERAWLREQGKEVGETLLYYGCRRSDEDYLYREELARFHKDGALTQLNVAFSREQAHKVYVQHLLKRDREHLWKLIHEGGAHIYVCGDARNMAKDVQNTFYDIVAEFGPMEHTQAVDYVKKLMTKGRYSLDVWS
For the molecule B1, in the data set “SEC”, the binding result was “binds”. The Kd (usually the equilibrium constant for the complex coming apart) in data set [1] lay in the range of 10 to 50 nM. Also, the stoichiometry N (CPR per CYP3A4) in data set [2] was found to be 1.
